Here are results for 27 molecules from publication PMC10786891, “Massively parallel profiling of RNA-targeting CRISPR-Cas13d”.

As usually defined, the Kd is a measure of binding affinity in units of concentration.

The chains are these.
T1: EsCas13d, nuclease-dead (Eubacterium siraeum, UniProt B0MS50, R295A;H300A;R849A;H854A)
T1 sequence: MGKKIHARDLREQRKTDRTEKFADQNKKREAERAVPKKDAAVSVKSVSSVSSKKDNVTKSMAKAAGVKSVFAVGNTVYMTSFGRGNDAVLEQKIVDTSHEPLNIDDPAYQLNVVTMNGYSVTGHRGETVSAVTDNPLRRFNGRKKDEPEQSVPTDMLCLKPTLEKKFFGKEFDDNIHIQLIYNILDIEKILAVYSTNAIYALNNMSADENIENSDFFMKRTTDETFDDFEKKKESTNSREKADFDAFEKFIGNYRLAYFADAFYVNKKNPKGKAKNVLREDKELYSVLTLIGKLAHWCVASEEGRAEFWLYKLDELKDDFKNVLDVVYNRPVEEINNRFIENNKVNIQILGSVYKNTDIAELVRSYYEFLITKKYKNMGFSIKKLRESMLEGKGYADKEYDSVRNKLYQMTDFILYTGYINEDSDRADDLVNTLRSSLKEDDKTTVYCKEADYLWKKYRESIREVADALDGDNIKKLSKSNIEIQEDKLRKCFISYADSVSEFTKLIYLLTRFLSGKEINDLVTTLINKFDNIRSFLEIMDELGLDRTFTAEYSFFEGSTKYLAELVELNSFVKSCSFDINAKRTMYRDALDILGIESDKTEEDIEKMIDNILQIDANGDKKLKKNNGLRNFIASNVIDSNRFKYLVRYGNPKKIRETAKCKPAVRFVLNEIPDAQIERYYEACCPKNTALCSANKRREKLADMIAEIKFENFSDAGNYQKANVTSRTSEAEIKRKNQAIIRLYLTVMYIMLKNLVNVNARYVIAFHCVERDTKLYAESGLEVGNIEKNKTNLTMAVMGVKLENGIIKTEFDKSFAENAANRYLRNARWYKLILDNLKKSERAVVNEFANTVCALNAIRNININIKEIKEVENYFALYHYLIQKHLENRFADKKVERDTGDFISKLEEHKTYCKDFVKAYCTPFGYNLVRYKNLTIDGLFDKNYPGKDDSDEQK

B1: target 2 MT 5'PFS UUC 3'PFS CCC (mixed)
RNA 1: CACCCGUGCAAAAUUGCAGGGGUCUAAAACCUUCUCCAAAUUGUUUCAUCCU
RNA 2: GGGAAUGGAUCCACAUCUACGAAUUCUUCAGGAUGAAACAAUUUGGAGAAGCCCAGAUCGGAAGAGCACACGU
B2: target 2 MT 5'PFS GAC 3'PFS CAA (mixed)
RNA 1: CACCCGUGCAAAAUUGCAGGGGUCUAAAACCUUCUCCAAAUUGUUUCAUCCU
RNA 2: GGGAAUGGAUCCACAUCUACGAAUUCGACAGGAUGAAACAAUUUGGAGAAGCAAAGAUCGGAAGAGCACACGU
B3: target 2 MT 5'PFS GAG 3'PFS AAU (mixed)
RNA 1: CACCCGUGCAAAAUUGCAGGGGUCUAAAACCUUCUCCAAAUUGUUUCAUCCU
RNA 2: GGGAAUGGAUCCACAUCUACGAAUUCGAGAGGAUGAAACAAUUUGGAGAAGAAUAGAUCGGAAGAGCACACGU
B4: target 2 MT 5'PFS GUA 3'PFS CUG (mixed)
RNA 1: CACCCGUGCAAAAUUGCAGGGGUCUAAAACCUUCUCCAAAUUGUUUCAUCCU
RNA 2: GGGAAUGGAUCCACAUCUACGAAUUCGUAAGGAUGAAACAAUUUGGAGAAGCUGAGAUCGGAAGAGCACACGU
B5: target 2 MT 5'PFS UGA 3'PFS ACU (mixed)
RNA 1: CACCCGUGCAAAAUUGCAGGGGUCUAAAACCUUCUCCAAAUUGUUUCAUCCU
RNA 2: GGGAAUGGAUCCACAUCUACGAAUUCUGAAGGAUGAAACAAUUUGGAGAAGACUAGAUCGGAAGAGCACACGU
B6: target 2 MT 5'PFS GUA 3'PFS CUU (mixed)
RNA 1: CACCCGUGCAAAAUUGCAGGGGUCUAAAACCUUCUCCAAAUUGUUUCAUCCU
RNA 2: GGGAAUGGAUCCACAUCUACGAAUUCGUAAGGAUGAAACAAUUUGGAGAAGCUUAGAUCGGAAGAGCACACGU
B7: target 2 MT 5'PFS CGG 3'PFS AUA (mixed)
RNA 1: CACCCGUGCAAAAUUGCAGGGGUCUAAAACCUUCUCCAAAUUGUUUCAUCCU
RNA 2: GGGAAUGGAUCCACAUCUACGAAUUCCGGAGGAUGAAACAAUUUGGAGAAGAUAAGAUCGGAAGAGCACACGU
B8: target 2 MT 5'PFS AUU 3'PFS ACG (mixed)
RNA 1: CACCCGUGCAAAAUUGCAGGGGUCUAAAACCUUCUCCAAAUUGUUUCAUCCU
RNA 2: GGGAAUGGAUCCACAUCUACGAAUUCAUUAGGAUGAAACAAUUUGGAGAAGACGAGAUCGGAAGAGCACACGU
B9: target 2 MT 5'PFS AUU 3'PFS ACA (mixed)
RNA 1: CACCCGUGCAAAAUUGCAGGGGUCUAAAACCUUCUCCAAAUUGUUUCAUCCU
RNA 2: GGGAAUGGAUCCACAUCUACGAAUUCAUUAGGAUGAAACAAUUUGGAGAAGACAAGAUCGGAAGAGCACACGU
B10: target 2 MT 5'PFS GUA 3'PFS CUA (mixed)
RNA 1: CACCCGUGCAAAAUUGCAGGGGUCUAAAACCUUCUCCAAAUUGUUUCAUCCU
RNA 2: GGGAAUGGAUCCACAUCUACGAAUUCGUAAGGAUGAAACAAUUUGGAGAAGCUAAGAUCGGAAGAGCACACGU
B11: target 2 MT 5'PFS AAG 3'PFS AUU (mixed)
RNA 1: CACCCGUGCAAAAUUGCAGGGGUCUAAAACCUUCUCCAAAUUGUUUCAUCCU
RNA 2: GGGAAUGGAUCCACAUCUACGAAUUCAAGAGGAUGAAACAAUUUGGAGAAGAUUAGAUCGGAAGAGCACACGU
B12: target 2 MT 5'PFS AUU 3'PFS ACC (mixed)
RNA 1: CACCCGUGCAAAAUUGCAGGGGUCUAAAACCUUCUCCAAAUUGUUUCAUCCU
RNA 2: GGGAAUGGAUCCACAUCUACGAAUUCAUUAGGAUGAAACAAUUUGGAGAAGACCAGAUCGGAAGAGCACACGU
B13: target 2 MT 5'PFS GAA 3'PFS UUU (mixed)
RNA 1: CACCCGUGCAAAAUUGCAGGGGUCUAAAACCUUCUCCAAAUUGUUUCAUCCU
RNA 2: GGGAAUGGAUCCACAUCUACGAAUUCGAAAGGAUGAAACAAUUUGGAGAAGUUUAGAUCGGAAGAGCACACGU
B14: target 2 MT 5'PFS UGA 3'PFS AGC (mixed)
RNA 1: CACCCGUGCAAAAUUGCAGGGGUCUAAAACCUUCUCCAAAUUGUUUCAUCCU
RNA 2: GGGAAUGGAUCCACAUCUACGAAUUCUGAAGGAUGAAACAAUUUGGAGAAGAGCAGAUCGGAAGAGCACACGU
B15: target 2 MT 5'PFS GUA 3'PFS CUC (mixed)
RNA 1: CACCCGUGCAAAAUUGCAGGGGUCUAAAACCUUCUCCAAAUUGUUUCAUCCU
RNA 2: GGGAAUGGAUCCACAUCUACGAAUUCGUAAGGAUGAAACAAUUUGGAGAAGCUCAGAUCGGAAGAGCACACGU
B16: target 2 MT 5'PFS CGG 3'PFS AUU (mixed)
RNA 1: CACCCGUGCAAAAUUGCAGGGGUCUAAAACCUUCUCCAAAUUGUUUCAUCCU
RNA 2: GGGAAUGGAUCCACAUCUACGAAUUCCGGAGGAUGAAACAAUUUGGAGAAGAUUAGAUCGGAAGAGCACACGU
B17: target 2 MT 5'PFS UGA 3'PFS ACA (mixed)
RNA 1: CACCCGUGCAAAAUUGCAGGGGUCUAAAACCUUCUCCAAAUUGUUUCAUCCU
RNA 2: GGGAAUGGAUCCACAUCUACGAAUUCUGAAGGAUGAAACAAUUUGGAGAAGACAAGAUCGGAAGAGCACACGU
B18: target 2 MT 5'PFS CGG 3'PFS AUC (mixed)
RNA 1: CACCCGUGCAAAAUUGCAGGGGUCUAAAACCUUCUCCAAAUUGUUUCAUCCU
RNA 2: GGGAAUGGAUCCACAUCUACGAAUUCCGGAGGAUGAAACAAUUUGGAGAAGAUCAGAUCGGAAGAGCACACGU
B19: target 2 MT 5'PFS UCA 3'PFS UGU (mixed)
RNA 1: CACCCGUGCAAAAUUGCAGGGGUCUAAAACCUUCUCCAAAUUGUUUCAUCCU
RNA 2: GGGAAUGGAUCCACAUCUACGAAUUCUCAAGGAUGAAACAAUUUGGAGAAGUGUAGAUCGGAAGAGCACACGU
B20: target 2 MT 5'PFS GAC 3'PFS CAG (mixed)
RNA 1: CACCCGUGCAAAAUUGCAGGGGUCUAAAACCUUCUCCAAAUUGUUUCAUCCU
RNA 2: GGGAAUGGAUCCACAUCUACGAAUUCGACAGGAUGAAACAAUUUGGAGAAGCAGAGAUCGGAAGAGCACACGU
B21: target 2 MT 5'PFS UGA 3'PFS ACC (mixed)
RNA 1: CACCCGUGCAAAAUUGCAGGGGUCUAAAACCUUCUCCAAAUUGUUUCAUCCU
RNA 2: GGGAAUGGAUCCACAUCUACGAAUUCUGAAGGAUGAAACAAUUUGGAGAAGACCAGAUCGGAAGAGCACACGU
B22: target 2 MT 5'PFS UGA 3'PFS CAG (mixed)
RNA 1: CACCCGUGCAAAAUUGCAGGGGUCUAAAACCUUCUCCAAAUUGUUUCAUCCU
RNA 2: GGGAAUGGAUCCACAUCUACGAAUUCUGAAGGAUGAAACAAUUUGGAGAAGCAGAGAUCGGAAGAGCACACGU
B23: target 2 MT 5'PFS UGA 3'PFS ACG (mixed)
RNA 1: CACCCGUGCAAAAUUGCAGGGGUCUAAAACCUUCUCCAAAUUGUUUCAUCCU
RNA 2: GGGAAUGGAUCCACAUCUACGAAUUCUGAAGGAUGAAACAAUUUGGAGAAGACGAGAUCGGAAGAGCACACGU
B24: target 2 MT 5'PFS AAG 3'PFS AUC (mixed)
RNA 1: CACCCGUGCAAAAUUGCAGGGGUCUAAAACCUUCUCCAAAUUGUUUCAUCCU
RNA 2: GGGAAUGGAUCCACAUCUACGAAUUCAAGAGGAUGAAACAAUUUGGAGAAGAUCAGAUCGGAAGAGCACACGU
B25: target 1 insU 3' of 9,insG 3' of 8 (mixed)
RNA 1: CACCCGUGCAAAAAUGCAGGGGUCUAAAACUGAGCGGAUAACCUCUCUAUGG
RNA 2: GGGAAUGGAUCCACAUCUACGAAUUCGUACCAUAGAGAGGUUAUUGCCGCUCACCGAGAUCGGAAGAGCACACGU
B26: target 1 insU 3' of 20,insC 3' of 19 (mixed)
RNA 1: CACCCGUGCAAAAAUGCAGGGGUCUAAAACUGAGCGGAUAACCUCUCUAUGG
RNA 2: GGGAAUGGAUCCACAUCUACGAAUUCGUACCAUUCAGAGAGGUUAUCCGCUCACCGAGAUCGGAAGAGCACACGU
B27: target 1 C7A,U10C (mixed)
RNA 1: CACCCGUGCAAAAAUGCAGGGGUCUAAAACUGAGCGGAUAACCUCUCUAUGG
RNA 2: GGGAAUGGAUCCACAUCUACGAAUUCGUACCAUAGAGAGGUCAUACGCUCACCGAGAUCGGAAGAGCACACGU

In this series the target is T1, EsCas13d, nuclease-dead. The experiment in a line: crRNA (strand 1, pre-loaded); Mg2+; 40 mM Tris-HCl pH 7.5, 150 mM NaCl, 6 mM MgCl2, 1 mM DTT, 0.1% Tween-20, 0.2 mg/ml BSA; 25 C; 10 min per concentration, then washed. Particulars: tags: His6-TwinStrep-SUMO cleaved; N-terminal SNAP kept (SNAP-Surface 488); label: 3' end held by stalled T7 RNA polymerase.
In the case of B1, the Kd is about 29 nM.
On to B2, for which binding was put at a Kd of 6.2 ± 1.2 nM.
In the case of B3 it was 5.6 ± 0.7 nM; in that of B4, 11.1 ± 1.2 nM; in that of B5, 15.6 ± 3.5 nM.
In the case of B6 it was 10.2 ± 1 nM; in that of B7, 4.1 ± 0.5 nM.
For the molecule B8, the Kd was found to be 9 ± 1 nM.
In the case of B9 it was 9.5 ± 2 nM; in that of B10, 6.5 ± 0.6 nM; in that of B11, 4.1 ± 0.5 nM.
In the case of B12 it was 15.2 ± 3.1 nM.
In the case of B13 it was 24 ± 4 nM; in that of B14, 6 ± 0.9 nM; in that of B15, 15.5 ± 2.6 nM.
In turn, B16 had a dissociation constant Kd of 4.01 ± 0.28 nM.
In the case of B17 it was 9.1 ± 1 nM; in that of B18, 6.8 ± 1.1 nM.
In the case of B19 it was 7.8 ± 1.1 nM.
In the case of B20 it was 17 ± 4 nM.
Consider B21, for which the affinity, expressed as Kd, was 16 ± 4 nM.
The molecule B22 came in with a dissociation constant Kd of 6.6 ± 0.7 nM.
Turning to B23, the Kd is 11.6 ± 1.9 nM.
In the case of B24 it was 5.2 ± 0.9 nM; in that of B25, 8.3 ± 0.5 nM.
In the case of B26 it was 50 ± 17 nM; in that of B27, 13.6 ± 0.7 nM.
